Common to all, as to test: cell_activity; human T cells, 1 ug mRNA, day 3
Common to all, as to settings: tags: N-terminal SV40 NLS

One data set deals with T1, B2M 13-14x.465 (Artificial Sequence).
T1 chain: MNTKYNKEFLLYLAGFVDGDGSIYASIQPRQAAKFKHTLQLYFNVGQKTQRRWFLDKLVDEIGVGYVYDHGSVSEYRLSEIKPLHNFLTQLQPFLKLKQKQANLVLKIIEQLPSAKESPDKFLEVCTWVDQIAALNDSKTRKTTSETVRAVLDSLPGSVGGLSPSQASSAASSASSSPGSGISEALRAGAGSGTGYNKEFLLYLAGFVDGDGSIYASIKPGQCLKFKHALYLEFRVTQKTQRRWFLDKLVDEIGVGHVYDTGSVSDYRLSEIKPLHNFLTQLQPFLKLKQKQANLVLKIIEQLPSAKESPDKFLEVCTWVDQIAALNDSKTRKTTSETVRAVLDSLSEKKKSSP
The protocol:
(§1) Donor human T cells were stimulated with anti-CD3 and anti-CD28 antibodies for 3 days, then electroporated with mRNA encoding a given B2M 13-14 meganuclease (1 μg) using the Amaxa 4D-Nucleofector (Lonza) according to the manufacturer's instructions. To look for the loss of B2M surface expression, cells were stained with an antibody recognizing β-2 microglobulin (BD Biosciences) as well as an antibody recognizing CD3 (BioLegend), a marker of T cells.

The next data set has as its target T2, B2M 13-14x.283 (Artificial Sequence).
T2 chain: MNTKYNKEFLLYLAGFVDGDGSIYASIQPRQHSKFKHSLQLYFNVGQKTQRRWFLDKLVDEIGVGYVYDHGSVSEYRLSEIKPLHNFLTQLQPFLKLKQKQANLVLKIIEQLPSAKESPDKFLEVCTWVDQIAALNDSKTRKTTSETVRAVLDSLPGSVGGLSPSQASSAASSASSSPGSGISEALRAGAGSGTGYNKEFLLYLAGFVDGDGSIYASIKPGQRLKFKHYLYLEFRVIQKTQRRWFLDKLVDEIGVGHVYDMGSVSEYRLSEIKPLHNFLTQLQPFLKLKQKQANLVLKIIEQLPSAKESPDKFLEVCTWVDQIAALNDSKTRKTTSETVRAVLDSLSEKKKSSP
The procedure:
as §1

The target in the next data set is T3, B2M 13-14x.371 (Artificial Sequence).
T3 chain: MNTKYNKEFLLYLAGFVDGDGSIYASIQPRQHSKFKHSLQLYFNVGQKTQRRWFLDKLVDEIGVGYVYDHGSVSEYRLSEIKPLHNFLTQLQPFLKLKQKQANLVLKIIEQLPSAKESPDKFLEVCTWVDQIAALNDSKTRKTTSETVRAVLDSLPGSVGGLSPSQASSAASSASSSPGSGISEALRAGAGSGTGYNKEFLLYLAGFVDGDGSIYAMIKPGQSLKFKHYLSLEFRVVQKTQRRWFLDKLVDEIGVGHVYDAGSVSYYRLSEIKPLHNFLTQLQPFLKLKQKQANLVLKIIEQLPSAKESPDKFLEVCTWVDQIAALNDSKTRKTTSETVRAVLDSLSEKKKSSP
The procedure: as §1

The target in a further data set is T4, B2M 13-14x.281 (Artificial Sequence).
T4 chain: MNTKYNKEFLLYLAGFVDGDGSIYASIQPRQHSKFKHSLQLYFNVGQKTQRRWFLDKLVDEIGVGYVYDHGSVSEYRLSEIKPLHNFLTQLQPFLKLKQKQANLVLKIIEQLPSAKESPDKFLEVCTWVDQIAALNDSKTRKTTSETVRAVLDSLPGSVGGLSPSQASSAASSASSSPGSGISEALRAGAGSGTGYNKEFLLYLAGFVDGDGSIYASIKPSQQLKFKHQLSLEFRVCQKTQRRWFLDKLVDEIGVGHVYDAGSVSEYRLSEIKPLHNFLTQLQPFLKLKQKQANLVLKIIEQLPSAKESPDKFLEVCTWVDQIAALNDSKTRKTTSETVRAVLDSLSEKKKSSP
The procedure: as §1

A further data set deals with T5, B2M 13-14x.362 (Artificial Sequence).
T5 chain: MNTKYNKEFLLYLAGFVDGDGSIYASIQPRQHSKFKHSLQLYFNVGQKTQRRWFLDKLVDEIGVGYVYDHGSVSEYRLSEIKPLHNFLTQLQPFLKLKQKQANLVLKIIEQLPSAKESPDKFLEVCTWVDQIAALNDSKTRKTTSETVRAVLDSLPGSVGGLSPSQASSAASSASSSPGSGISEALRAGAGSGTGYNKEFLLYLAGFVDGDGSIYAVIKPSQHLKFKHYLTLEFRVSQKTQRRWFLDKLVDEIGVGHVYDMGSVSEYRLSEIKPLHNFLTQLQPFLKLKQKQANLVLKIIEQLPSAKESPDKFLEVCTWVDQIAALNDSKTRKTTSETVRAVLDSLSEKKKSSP
The protocol: as §1

The next data set concerns the target T6, B2M 13-14x.464 (Artificial Sequence).
T6 chain: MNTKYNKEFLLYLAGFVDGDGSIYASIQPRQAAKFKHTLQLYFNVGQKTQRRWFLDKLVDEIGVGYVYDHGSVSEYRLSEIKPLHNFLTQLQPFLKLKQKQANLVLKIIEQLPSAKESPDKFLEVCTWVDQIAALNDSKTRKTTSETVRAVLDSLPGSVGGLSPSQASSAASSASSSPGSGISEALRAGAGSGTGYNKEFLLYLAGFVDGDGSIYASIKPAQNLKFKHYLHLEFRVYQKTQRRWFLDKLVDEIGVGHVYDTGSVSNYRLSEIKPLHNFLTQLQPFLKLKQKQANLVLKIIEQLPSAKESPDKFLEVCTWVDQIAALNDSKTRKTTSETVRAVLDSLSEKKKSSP
The protocol:
as §1

The target in the next data set is T7, B2M 13-14x.286 (Artificial Sequence).
T7 chain: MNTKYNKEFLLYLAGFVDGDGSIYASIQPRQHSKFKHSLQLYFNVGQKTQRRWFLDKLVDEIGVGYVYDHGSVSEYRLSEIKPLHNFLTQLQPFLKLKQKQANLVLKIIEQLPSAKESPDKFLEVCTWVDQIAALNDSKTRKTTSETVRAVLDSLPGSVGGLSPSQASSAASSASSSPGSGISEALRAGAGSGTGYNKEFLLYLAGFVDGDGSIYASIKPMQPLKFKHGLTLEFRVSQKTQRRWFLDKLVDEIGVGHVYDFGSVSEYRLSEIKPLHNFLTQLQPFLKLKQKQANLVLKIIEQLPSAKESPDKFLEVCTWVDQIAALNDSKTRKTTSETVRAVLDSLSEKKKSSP
The protocol:
as §1

Among the data in patent US20210032664, “ENGINEERED MEGANUCLEASES WITH RECOGNITION SEQUENCES FOUND IN THE HUMAN BETA-2 MICROGLOBULIN GENE” (Precision Biosciences, Inc., published 2021) are activity values, retold here.

B1: B2M 13-14 recognition sequence (dsDNA)
DNA 1: CTATCTCTTGTACTACACTGAA
DNA 2: TTCAGTGTAGTACAAGAGATAG
For B1, the activity with B2M 13-14x.465 is 30.8 % B2M-negative; in the data set with B2M 13-14x.283, 49.3 % B2M-negative; with B2M 13-14x.371, 22.6 % B2M-negative; in the data set with B2M 13-14x.281 it was 53.6 % B2M-negative; with B2M 13-14x.362 it was 37.8 % B2M-negative; with B2M 13-14x.464 it was 8.24 % B2M-negative. In the data set with B2M 13-14x.286, this molecule returned an activity of 44.6 % B2M-negative.
